The values that follow come from patent US20080176285.

For one data set, the target named is porcine uteroferrin (UniProt P09889).
A further data set concerns the target RNAse B (UniProt P61823).
Chain of UniProt P61823 (P61823 27-150): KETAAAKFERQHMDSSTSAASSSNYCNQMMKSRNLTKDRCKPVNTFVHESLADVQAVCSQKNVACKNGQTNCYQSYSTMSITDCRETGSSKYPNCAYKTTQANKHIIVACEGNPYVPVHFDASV

Chain of UniProt P09889 (P09889 22-340): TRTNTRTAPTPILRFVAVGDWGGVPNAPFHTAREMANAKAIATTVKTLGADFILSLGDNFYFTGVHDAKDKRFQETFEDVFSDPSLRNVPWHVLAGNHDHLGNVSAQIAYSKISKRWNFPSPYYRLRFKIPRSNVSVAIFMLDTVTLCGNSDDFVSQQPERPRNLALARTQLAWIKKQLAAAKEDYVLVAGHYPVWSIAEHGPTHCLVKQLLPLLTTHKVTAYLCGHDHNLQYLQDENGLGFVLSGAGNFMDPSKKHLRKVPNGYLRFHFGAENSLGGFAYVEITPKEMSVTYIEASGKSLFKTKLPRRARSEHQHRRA

As for “bovine GlcNAc-phosphotransferase (UDP-N-acetylglucosamine: lysosomal enzyme N-acetylglucosamine-1-phosphotransferase)”, the “Km as acceptor for the transfer of GlcNAc-1-P” value in the data set with porcine uteroferrin is given as “Kms below 20 µM”; in the data set with cathepsin D, “Kms below 20 µM”; in the data set with RNAse B, “the Km was not reached at the solubility limit of the protein (at 600 µM)”.
